In patent US20150086564A1 (CENTRE NATIONAL DE LA RECHERCHE SCIENTIFIQUE CNRS, published 2015):

Experiments:
[1] = biological target: T1, recombinant human sPLA2-IIA N1A mutant (human, UniProt P14555 22-144); assay: indirect ELISA on coated sPLA2-IIA N1A, anti-mouse IgG-HRP detection, one-site saturation fit
T1 construct: also called N1A sPLA2-IIA mutant
T1 sequence: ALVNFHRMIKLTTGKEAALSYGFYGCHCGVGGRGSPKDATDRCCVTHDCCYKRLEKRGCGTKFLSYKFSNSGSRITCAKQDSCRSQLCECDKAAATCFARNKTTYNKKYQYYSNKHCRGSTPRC

[2] = biological target: T1, recombinant human sPLA2-IIA N1A mutant; assay: indirect ELISA on coated sPLA2-IIA N1A (50 ng/well), one-site saturation fit, relative Kd
[3] = biological target: T1, recombinant human sPLA2-IIA N1A mutant; assay: indirect ELISA on coated sPLA2-IIA N1A, streptavidin-HRP detection, one-site saturation fit

B1: monoclonal anti-sPLA2-IIA antibody #9C8 (antibody, IgG1, V domains shown)
VH: DVELVESGGGLVKLGGSLKLSCAASGFTFSSYYMSWVRQTPEKRLELVAAINSNGGSTYYPDTVKGRFTISRDNAKNTLYLQMSSLKSEDTALYYCARQGYGNFFDYWGQGTTLTVSS
VL: DVVMTQTPLSLPVSLGDQASISCRSSQSIVHSNGNTYLYWYLQKPGQSPKLLIYRVSNRFSGVPDRFSGSGSGTDFTLKISRVEAEDMGVYYCFQGTHVPRTFGGGTNLEIKR
notes: also called 9C8 antibody
Kd [1]: 1.17 nM | Kd [2]: 1.71 nM

B2: biotinylated monoclonal antibody #9C8 (antibody, mouse IgG1, V domains shown)
VH: B1 VH
VL: B1 VL
modifications: biotinylated (Pierce kit ref. 21435), sites not stated
notes: also called biotinylated #9C8
Kd [3]: 3.34 nM

B3: monoclonal anti-sPLA2-IIA antibody #6G2 (antibody, IgG1, V domains shown)
VH: QVQLQQSGAELVKPGASVKLSCKASGYTFTSYDINWVRQRPEQGLEWIGWIFPGDGSTEYNEKFKGKATLTTDKSSSTAYMQLSRLTSEDSAVYFCARWGITAFPLFDYWGQGTALTVSS
VL: DIVLTQSPASLAVSLGQRATISCRASESVDYDGDSYMNWYQQKPGQPPKLLIYAASNLESGIPARFSGSGSGTDFTLNIHPVEEEDAATYYCLQSNEAPWTFGGGTKLEIKR
notes: also called 6G2 antibody
Kd [1]: 0.0817 nM | Kd [2]: 0.124 nM

B4: biotinylated monoclonal antibody #6G2 (antibody, mouse IgG1, V domains shown)
VH: B3 VH
VL: B3 VL
modifications: biotinylated (Pierce kit ref. 21435), sites not stated
notes: also called #6G2-Biot; 6G2-biot
Kd [3]: 0.22 nM
